Results from US20120041056A1, “NUCLEIC ACIDS SPECIFICALLY BINDING WITH HUMAN FACTOR VII/VIIA AND USES THEREOF” (LFB BIOTECHNOLOGIES, published 2012).

How the values were obtained:
[1] = target: T1, Factor VII/VIIa (FVII HP, plasma-derived) (Homo sapiens, UniProt P08709;P08709 P08709:61-212,P08709:213-466); assay: SPR; FVII immobilized, aptamer 1 uM; much higher affinity than other family 2 members; 10 mM CaCl2, 4 mM MgCl2, pH 7.5; conditions: tags: none; purified from human plasma (98-99% purity)
Protocol: A series of 27 nucleic aptamers of the invention (purity: 99%), having a length ranging from 43 to 66 nucleotides depending on the aptamers, were diluted in running buffer (50 mM Tris, 50 mM NaCl, 10 mM CaCl₂, 4 mM MgCl₂, pH 7.5) so as to obtain three aptamer samples. Each aptamer tested was injected at a final concentration of 1 μM in the running buffer.
Each sample was injected sequentially onto the same chip (solid substrate) containing the immobilized human FVII. Controls are obtained by injecting blanks containing only running buffer. All the injections were carried out with a flow rate of 30 μl/min for 60 sec; after the injection, running buffer was injected onto the chip at an identical flow rate, for 120 sec. Elution buffer (5 mM EDTA) was then injected for 60 sec with a flow rate of 30 μl/min in order to detach the aptamer from the immobilized human FVII. The chip makes it possible to study, in real time, the formation and the breaking of the interactions between the immobilized human FVII and each of the aptamers tested, by means of surface plasmon resonance (SPR). Binding to the immobilized human FVII is reflected by an increase in the signal, in resonance units (RU), recorded by the apparatus (figure E1). These analyses are carried out with the RPS Biacore T100 apparatus (GE). The modeling of the interactions recorded is carried out using the Biaevaluation software (GE).

[2] = target: T1, Factor VII/VIIa (FVII HP, …); assay: pulldown; affinity chromatography on streptavidin gel; CaCl2/MgCl2 buffer pH 7.5, eluted with 10 mM EDTA; Mapt2 core in low affinity group by SPR (Example 11); conditions: tags: none; purified from human plasma (98-99% purity); label: 5'-biotin
Protocol: Gel equilibration: 0.050 M Tris-HCl, 0.010 M CaCl₂, 0.05 mM MgCl₂, pH 7.5, elution: 0.020 M Tris-HCl, 0.010 M EDTA, pH 7.5, 240 μg of human plasma FVII purified to 98% is injected with a flow rate of 0.5 ml/min in equilibration buffer.

[3] = target: Factor VII, recombinant rabbit (Oryctolagus cuniculus, UniProt P98139;P98139 P98139:40-191,P98139:192-444); assay: SPR; no binding to rabbit FVII/VIIa; conditions: label: 5'-biotin
Protocol: Each sample was injected sequentially onto the same chip (solid substrate) containing the Mapt2 aptamer immobilized by means of a biotin-streptavidin interaction. Controls are obtained by injecting blanks containing only running buffer. Signals corresponding to the background noise are obtained by injecting the same samples onto the reference cell containing the immobilized some nucleic acids or other, these signals are subtracted from the signals obtained on the active cell. All the injections were carried out with a flow rate of 30 μl/min for 60 sec; after the injection, running buffer was injected onto the chip at an identical flow rate, for 120 sec. Elution buffer (15 mM EDTA) was then injected for 30 sec with a flow rate of 30 μl/min in order to detach the human or rabbit FVII from the aptamer. The chip makes it possible to study, in real time, the formation and the breaking of the interactions between the FVII HP and the immobilized aptamer by means of surface plasmon resonance (SPR). Binding to the immobilized aptamer is reflected by an increase in the signal, in resonance units (RU), recorded by the apparatus (FIG. 8). These analyses are carried out with the RPS Biacore T100 apparatus (GE).
The modeling of the interactions recorded is carried out using the Biaevaluation software (GE).

[4] = target: Factor VII, rabbit plasma (hydroxyapatite eluate) (Oryctolagus cuniculus, UniProt P98139;P98139 P98139:40-191,P98139:192-444); assay: pulldown; affinity chromatography; 0.2% step yield in eluate, rabbit FVII not retained; conditions: tags: enriched from rabbit plasma; label: 5'-biotin
Protocol: Gel equilibration: 0.050 M Tris-HCl, 0.010 M CaCl₂, 0.05 mM […], pH 7.5, elution: 0.050 M Tris-HCl, 0.010 M EDTA, pH 7.5, 36 μg are injected into the gel with a contact time of 10 minutes. The elution is carried out by injecting 2 ml of elution buffer.
The fractions are analyzed for their amidolytic activity by chromogenic assay using a Stago kit according to the supplier's recommendations (factor VIIa StatClot kit). The amidolytic activity is then converted to pg of FVII contained in said fraction.

[5] = target: T1, Factor VII/VIIa (FVII HP, …); assay: SPR; aptamer immobilized; 50 mM Tris, 50 mM NaCl, 10 mM CaCl2, 4 mM MgCl2, pH 7.4; about 1:1 stoichiometry (Example 4); conditions: tags: none; purified from human plasma (98-99% purity); label: 5'-biotin
[6] = target: T1, Factor VII/VIIa (FVII HP, …); assay: SPR; FVII immobilized; 10 mM CaCl2, 4 mM MgCl2, pH 7.4; eluted by 5 mM EDTA; conditions: tags: none; purified from human plasma (98-99% purity)
Protocol: Each sample was injected sequentially onto the same chip (solid substrate) containing the immobilized human FVII. Controls were obtained by injecting blanks containing only running buffer. All the injections were carried out with a flow rate of 30 μl/min for 60 sec; after the injection, running buffer was injected onto the chip at an identical flow rate, for 120 sec. Elution buffer (5 mM EDTA) was then injected for 60 sec with a flow rate of 30 μl/min in order to detach the […]. The chip makes it possible to study, in real time, the formation and the breaking of the interactions between the immobilized human FVII and each of the aptamers Mapt2, Mapt3 and Mapt7 tested, by means of surface plasmon resonance (SPR). Binding to the immobilized human FVII is reflected by an increase in the signal, in resonance units (RU), recorded by the apparatus (FIG. 2). These analyses are carried out with the RPS Biacore T100 apparatus (GE). The modeling of the interactions recorded is carried out using the Biaevaluation software (GE).

CCGCACGCTACGCGCATGAACCCGCGCACACGACTTGAAGTAGC (ssDNA) [Mapt2.2 core sequence]
binding result [1]: binds

CCGCACACCACGCGCATAATCCCGCGCACACGACTTGAAGTAGC (ssDNA, 5'-biotin without spacer) [Mapt-2 core (5'-biotin)]
binding result [2]: binds

B1: Mapt2 (biotin-PEG) (ssDNA)
DNA: GGGAGATAGCCACGACCTATGCAGCCAGCCGCAGTGTAAGTGAATGCAGACATGGTCTAAGTGTCCAGGCTGTGCGAAAGC
modifications: 5' spacer of 4 PEG(C18) and terminal biotin
binding result [3]: no binding
binding result [4]: no binding
Kd [5]: 99.9 nM

B2: Mapt2 (ssDNA)
DNA: B1 DNA
binding result [6]: binds

AGTCTCCATGTTGCGAACCGAATGGTAAGGGGATCGTACACTAC (ssDNA) [Mapt7]
binding result [6]: binds

CCGGAGACGCGCAGCTCCTATACATGCGCACATGACTTGAAGTC (ssDNA) [Mapt3]
binding result [6]: binds
